US20120122711A1, “SCREENING OF BIOPOLYMERS” (priority 2009, published 2012)
Non-standard residues stand in square brackets, D forms with d. Primed or numbered codes have the meaning given here. No end group written: not given here. PEG2′ = PEG2 tether (Merck, 20 atoms)

Legend:
[1] = biological target: human carbonic anhydrase II (hCAII) (Homo sapiens, UniProt P00918); experiment: Dot blot experiments of peptide ligands towards hCAII; format: binding; details: FIG. 9
[2] = biological target: T1, bovine carbonic anhydrase II (bCAII) (Bos taurus, UniProt P00921); experiment: Surface Plasmon Resonance (SPR) of peptide ligands on immobilized bCAII; format: binding; details: for interaction with bCAII: acetylated peptides, FIG. 9; for maximum response (Rmax): highest concentration (1.0 μM), bCAII immobilized to RU of 1000, FIG. 14; for association-dissociation pattern in SPR sensogram: in words; for response in SPR sensogram, in words: compared with other peptide ligands
Source text: Validation by SPR. The peptide ligands were investigated for their binding affinity towards bCAII using SPR as a validation tool. The target marker was immobilized onto CM5 sensor chip to a response unit (RU) of 1000 in a Biacore T100 system. Each peptide solution of a series of concentrations was eluted through the surface of the chip to observe the response as well as the dissociation pattern mediated by treatment of glycine-hydrochloride. As depicted in FIG. 14, the maximum responses (Rmax) by the peptide ligands increased in a stepwise fashion from the hexamer-2 to the decamers and then to the tetradecamer (8→40→140) at the highest concentration (1.0 μM).
Surface Plasmon Resonance (SPR) experiments to measure affinity of the re-synthesized peptide ligands. Affinity measurements were performed using a Biacore T100 system and research grade CM5 sensor chips (GE Heathcare). The instrument was primed with HBS-EP+ (GE Heathcare) buffer. Flow cell 1 (or 3) was used as a reference to subtract nonspecific binding, drift, and the bulk refractive index, while flow cell 2 (or 4) was immobilized with the target biomarker (bCAII) following standard procedures. A 1:1 mixture of 0.4 M EDC and 0.1 M NHS was used to activate flow cell 2 (or 4), and 0.1 mg/mL bCAII solution was injected. Blocking of the remaining activated groups was done with a 1 M solution of ethanolamine (pH 8.5). bCAII was immobilized onto the sensor chip surface by […] (RU). The instrument was then primed using running buffer (HBS-EP+). Each of the 6mer ligand candidates identified were dissolved in HBS-EP+buffer to produce 5 μM peptide stock solutions for each peptide, which were serially diluted by a factor of 2 to produce a concentration series down to 2 nM. For a given affinity measurement, these series of peptide solutions successively were injected into flow cell 2 (or 4) for […] of contact time, 5 min of dissociation time, and […] of stabilization time using a flow rate of 100 μL/min at 25° C. Flow cell 2 (or 4) was regenerated by glycine 2.5 (GE Healthcare) after injection of each peptide solution.

[3] = biological target: T1, bovine carbonic anhydrase II (bCAII); experiment: Dot blot assay of biotin-conjugated peptide ligands on deposited bCAII; format: binding; details: for dot blot affinity/potency towards bCAII, in words: serial reduction of deposited bCAII, peptide 0.5 μM, compared with precursor
Method: Dot blot assays to measure affinity of the re-synthesized peptide ligands conjugated to biotin. […] A solution of bCAII was prepared as 10 mg/mL stocks in PBS buffer (pH 7.4). A serial dilution of the mother solution was applied to a nitrocellulose membrane, typically ranging from 2 μg to 5 ng per spot. The membrane was blocked at room temperature for 2 h in 5% nonfat milk/TBS-T. The membrane was then washed with TBS-T. […] After washing three times with TBS-T for 10 min, 1:3000 streptavidin-HRP (Abcam) prepared in 0.5% milk/TBS-T was added to the membrane and incubated for 2 h. After washing three times with TBS-T for 10 min, the membrane was treated with chemiluminescent reagents (Amersham ECL plus Western blotting detection reagents, GE Healthcare) and then immediately developed on film.

[4] = biological target: bovine carbonic anhydrase II (bovine) (UniProt P00921); experiment: dot blot, peptide with biotin at C-terminus on spotted bCAII
[5] = biological target: bovine carbonic anhydrase II (bovine) (UniProt P00921); experiment: dot blot, biotinylated peptide on spotted bCAII

T1 sequence (P00921 whole entry): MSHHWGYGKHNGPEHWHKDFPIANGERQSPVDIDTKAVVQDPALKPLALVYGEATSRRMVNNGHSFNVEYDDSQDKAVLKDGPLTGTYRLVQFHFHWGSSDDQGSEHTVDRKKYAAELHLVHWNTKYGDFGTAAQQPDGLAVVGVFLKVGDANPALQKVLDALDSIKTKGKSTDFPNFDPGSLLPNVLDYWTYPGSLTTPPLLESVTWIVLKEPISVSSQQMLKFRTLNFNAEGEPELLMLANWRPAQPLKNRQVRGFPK
Sequence of bovine carbonic anhydrase II (bovine) (P00921 2-260 limits assumed): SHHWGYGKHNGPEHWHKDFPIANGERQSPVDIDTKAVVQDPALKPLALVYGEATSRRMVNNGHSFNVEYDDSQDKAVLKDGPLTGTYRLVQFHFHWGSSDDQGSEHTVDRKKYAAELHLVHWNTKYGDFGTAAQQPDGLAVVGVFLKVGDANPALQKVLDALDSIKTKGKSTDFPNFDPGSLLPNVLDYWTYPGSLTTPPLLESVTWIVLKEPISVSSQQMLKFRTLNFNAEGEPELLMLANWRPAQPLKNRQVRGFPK

How did the “dot blot potency towards hCAII compared with bCAII” value [1] turn out when lhrywf [hexamer-1] was run?
The value was “more potent”.

What about the “interaction with bCAII” value [2] of the same substance?
Its value is “interacting with bCAII”.

What about the “affinity (KD) in a Surface Plasmon Resonance (SPR) study” value ([2]; first-generation anchor peptide against bCAII) of the same substance?
Its value is “a few”.

For “ryrr-ifvykr ([dR][dY][dR][dR][dI][dF][dV][dY][dK][dR]) [decamer-3, 10]”, which “dot blot affinity/potency towards bCAII, in words” value [3] is on record?
Its value is “most prominent”.

With “ryrr-ifvykr-wryp ([dR][dY][dR][dR][dI][dF][dV][dY][dK][dR][dW][dR][dY][dP]-{PEG2′-biotin}) [tetradecamer-N2C, 12]” as the substance, how does the “maximum response (Rmax)” value [2] read?
The value was 140 RU.

And the “association-dissociation pattern in SPR sensogram” value [2]?
The value was “more antibody-like pattern”.

What about the “dot blot affinity compared with the two precursors decamer-N2 and decamer-C2” value ([3]; peptide ligand 0.1 μM) of the same substance?
The value was “not dramatically improved”.

And the “dot blot potency compared with initial anchor hexamer-2” value ([3]; peptide ligand 0.1 μM)?
The value was “far more potent”.

decamer-4 (ifvykr-wryp) (peptide) was tested. Which lowest amount of deposited bCAII giving a developed spot [4] did it give?
The lowest amount of deposited bCAII giving a developed spot was 20 ng.

Which lowest amount of deposited bCAII giving a developed spot [5] does the source give for decamer-3 (ryrr-ifvykr) (peptide) here?
Its lowest amount of deposited bCAII giving a developed spot is 20 ng.

Which “dot blot potency towards hCAII compared with bCAII” value [1] does the source give for “kvtflhrywf (Ac-[dK][dV][dT][dF][dL][dH][dR][dY][dW][dF]-NH2) [decamer-N1, 8, D-amino acids, acetylated]” here?
Its value is “similarly potent”.

And the “interaction with bCAII” value [2]?
Its value is “interacting with bCAII”.

And the “response in SPR sensogram, in words” value [2]?
The value was “higher response unit (RU)”.

What about the “association-dissociation pattern in SPR sensogram” value [2] of the same substance?
Its value is “much more antibody-like behavior”.

And the “dot blot affinity/potency towards bCAII, in words” value [3]?
The value was “more potent”.

What does the source list for “ifvykr ([dI][dF][dV][dY][dK][dR]) [hexamer-2]”?
response in SPR sensogram, in words [2]: even better property than hexamer-1; maximum response (Rmax) [2]: 8 RU; dot blot affinity/potency towards bCAII, in words [3]: even better property than hexamer-1

For “ifvykr-wryp ([dI][dF][dV][dY][dK][dR][dW][dR][dY][dP]) [decamer-4, 11]”, which “dot blot affinity/potency towards bCAII, in words” value [3] is on record?
The value was “most prominent”.
